# Earlier results in patent US20210330752A1, “FEED SUPPLEMENTS” (OmniGen Research, LLC, priority 2018, published 2021).
# Test system: binding protein
substance,measurement,value
Insulin-like growth factor-1 [IGF-1],IGF-1 in plasma bound to a binding protein,more than 99%
